Source: patent US20180118815A1
pKd: −log10 of the molar value.

Assays:
[1] = target: HIV-1 Env gp140 89.6 (HIV-1 isolate 89.6) (UniProt Q73372); experiment: SPR, Biacore X100, single-cycle, analytes at 0.1-1,000 nM on gp140 89.6, bivalent binding model
[2] = target: HIV-1 Env gp140 89.6 (HIV-1 isolate 89.6) (UniProt Q73372); experiment: ELISA, gp140 89.6 coated at 2 µg/ml, detection with HRP goat anti-human IgG (Fab-specific)
[3] = target: HIV-1 Env gp140 89.6 (HIV-1 isolate 89.6) (UniProt Q73372); experiment: ELISA on coated gp140 89.6 and SPR (Biacore X100, single-cycle, bivalent model)

Substance	pKd [1]	koff [1]	kon [1]	EC50 (read off the curve) [2]	fold higher affinity than MD [3]
MD13 (MD mutant with S64E/S66V in CH1 and S69L/T71S in CK)	7.77	0.00081 s⁻¹	47000 M⁻¹ s⁻¹	0.001 to 0.01 µM	1000 fold
MD (mD1.22-CH1/m36.4-CK heterodimer, wild-type CH1-CK)	4.80	0.077 s⁻¹	4800 M⁻¹ s⁻¹	–	–
